# Results as given in paper PMC8642242.
# Biological target: SARS-CoV-2 stabilized S trimer (HexaPro) (SARS-CoV-2)
# Assay: negative-stain EM
substance,measurement,value
SARS-CoV-2 stabilized S trimer (HexaPro) (domain or fragment),stoichiometry N,3
